These results are taken from article PMC9814548, “Chemoenzymatic synthesis of 3-ethyl-2,5-dimethylpyrazine by L-threonine 3-dehydrogenase and 2-amino-3-ketobutyrate CoA ligase/L-threonine aldolase” (Communications Chemistry, 2021).

In one data set the target is T1, CnKBL (Cupriavidus necator, UniProt Q0K313).
T1 construct: gene kbl; gene cloned in pET-28a (NcoI/XhoI), E. coli BL21(DE3), Ni-Sepharose and gel filtration; dimer; PLP on K246
T1 sequence (Q0K313 1-399): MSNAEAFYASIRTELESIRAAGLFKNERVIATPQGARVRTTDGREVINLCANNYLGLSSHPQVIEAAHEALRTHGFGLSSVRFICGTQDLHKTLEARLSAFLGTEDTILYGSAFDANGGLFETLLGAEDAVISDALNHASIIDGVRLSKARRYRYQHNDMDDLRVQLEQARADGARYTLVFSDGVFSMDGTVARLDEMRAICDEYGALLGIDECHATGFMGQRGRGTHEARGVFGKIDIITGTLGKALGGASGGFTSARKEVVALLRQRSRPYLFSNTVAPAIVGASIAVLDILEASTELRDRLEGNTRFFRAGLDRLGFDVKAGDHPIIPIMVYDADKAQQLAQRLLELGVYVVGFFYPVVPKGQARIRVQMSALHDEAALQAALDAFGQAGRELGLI
Briefly: X-ray crystal structure, […] Å. The settings on record: covalent, Schiff base with K246. It counts as binding.

Substrate in data set [1]: C[C@@H](O)[C@H](N)C(=O)O
Briefly: purified protein. The conditions noted are these: 50 mM potassium phosphate pH 8.0, 30 °C, no CoA. It counts as biochemical, Cupriavidus necator.

Substrate in data set [2]: NCC(=O)O
Briefly: purified protein. It counts as biochemical, Cupriavidus necator. The settings on record: 1 mM acetyl-CoA, 50 mM potassium phosphate pH 8.0, 30 °C.

Substrate in data set [3]: CC(=O)SCCNC(=O)CCNC(=O)[C@H](O)C(C)(C)COP(=O)(O)OP(=O)(O)OC[C@H]1O[C@@H](n2cnc3c(N)ncnc32)[C@H](O)[C@@H]1OP(=O)(O)O
Briefly: purified protein. Format: biochemical, Cupriavidus necator. The settings on record: 100 mM Gly, 50 mM potassium phosphate pH 8.0, 30 °C.

Substrate in data set [4]: C[C@H](O)[C@H](N)C(=O)O
Briefly: purified protein. Format: biochemical, Cupriavidus necator. The conditions noted are these: 50 mM potassium phosphate pH 8.0, 30 °C, no CoA.

Substrate in data set [5]: CCC(O)C(N)C(=O)O
Briefly: purified protein. The conditions noted are these: 50 mM potassium phosphate pH 8.0, 30 °C, no CoA. Format: biochemical, Cupriavidus necator.

With `Cc1ncc(COP(=O)(O)O)c(C=O)c1O` [PLP], the “X-ray crystal structure, 1.8 Å” value on CnKBL is “only PLP is coordinated at the site by forming a Schiff base with the side chain”.

B1: CnKBL (Cupriavidus necator H16) (protein)
chain: T1 sequence (Q0K313 1-399)
notes: gene cloned in pET-28a (NcoI/XhoI), E. coli BL21(DE3), Ni-Sepharose and gel filtration; dimer; PLP on K246
The Km is the substrate concentration at which the rate is half of its maximum. As a reminder, the kcat is the number of substrate molecules converted per active site and unit of time at saturation. One may read the kcat/Km as the second-order rate constant that governs catalysis at low substrate concentration. On to B1, for which the Km in “purified protein [1]” came to 1240 ± 110 µM; in the data set “purified protein [2]” it was 13900 ± 520 µM; in the data set “purified protein [3]” it was 242.7 ± 10.4 µM; in “purified protein [4]” it was 420 ± 86 µM; in the data set “purified protein [5]”, 200 ± 56 µM. Moreover, the kcat was determined as 0.00283 ± 0.0065 s⁻¹ in “purified protein [1]”; 3.43 ± 0.036 s⁻¹ in the data set “purified protein [2]”; 3.43 ± 0.036 s⁻¹ in the data set “purified protein [3]”; 0.000778 ± 4.33e-05 s⁻¹ in “purified protein [4]”; 0.00123 ± 7.17e-05 s⁻¹ in “purified protein [5]”. Further, the kcat/Km in the data set “purified protein [1]” came to 2.33 M⁻¹ s⁻¹; in the data set “purified protein [4]”, 1.83 M⁻¹ s⁻¹; in “purified protein [5]”, 6.17 M⁻¹ s⁻¹.
